This experiment deals with serum proteins. Description: 90% serum, 30 kDa ultrafiltration, HPLC.
The molecule GFCGHVCVYRNGVRRCYRRCN [SEQ ID NO: 155] showed a Protein binding (%) of 83%.
Under GFCYRVCVYRNGVRVCHRRCN [SEQ ID NO: 210] stands 89%; under GFCFYVCVYRNGVRVCRRRCN [SEQ ID NO: 56], 94%; under GFCWHVCVYRNGARSCYRRCN [SEQ ID NO: 213], 95%.
On to GFCYKVCVYRNGVRSCYRRCN [SEQ ID NO: 206], for which the Protein binding (%) came to 86%.
With GFCWKVCVYRNGVRVCYRRCN [SEQ ID NO: 10], the Protein binding (%) is 64%.
On to GFCWYVCVYRNGVRVCYRRCS [SEQ ID NO: 53], for which the Protein binding (%) was determined as 99%.
As to GFCWYVCVYRNGVRNCYRRCN [SEQ ID NO: 41], the Protein binding (%) was 97%.
The molecule GFCWYVCVYRNGVRVCKRRCN [SEQ ID NO: 47] showed a Protein binding (%) of 89%.
Under GFCARVCVKRNGVRVCYRRCN [SEQ ID NO: 125] stands 90%; under GFCWKVCVYRNGVRVCSRRCN [SEQ ID NO: 68], 87%.
Under GFCWYVCVYRNGVRTCYRRCN [SEQ ID NO: 45] stands 98%; under MFCWNVCVYRNGVRVCHRRCN [SEQ ID NO: 101], 81%.
In the case of GFCWYVCVYRNGVRQCYRRCN [SEQ ID NO: 42], the Protein binding (%) amounted to 96%.
GFCGRVCVYRNGVRVCYRRCN [SEQ ID NO: 61]: the Protein binding (%) amounted to 72%.
Under HFCWNVCVYRNGVRVCHRRCN [SEQ ID NO: 98] stands 77%; under GFCWYACVYRNGKRVCYRRCN [SEQ ID NO: 80], 96%; under GFCWRACVYRNGVRVCYRRCN [SEQ ID NO: 72], 97%.
GFCWNVCVYRNGVRVCYRRCN [SEQ ID NO: 11] showed a Protein binding (%) of 73%.
As to GFCWNVCVYRNGVRVCHRRCN [NZ17074 (the antimicrobial peptide of SEQ ID NO: 70)], the Protein binding (%) is 79%.
The molecule GFCGRVCVYRNGVRRCYRRCN [SEQ ID NO: 170] displayed a Protein binding (%) of 87%.
Under GFCAYVCVYRNGVRVCYRRCN [SEQ ID NO: 4] stands 89%.
In turn, GFCWYVCVYRNGVRVCHRRCN [SEQ ID NO: 46] yielded a Protein binding (%) of 88%.
As for GFCGHVCVYRNGVRVCYRRCN [SEQ ID NO: 60], the figure is 64%; as for GFCWRVCVYRNGVRVCHRRCN [SEQ ID NO: 76], 92%; as for GFCYRVCVYRNGVRTCYRRCN [SEQ ID NO: 209], 89%.
The molecule GFCYRVCVYRNGVRVCSRRCN [SEQ ID NO: 211] registered a Protein binding (%) of 96%.
For the molecule GFCGRVCVYRNGVRTCYRRCN [SEQ ID NO: 171], the Protein binding (%) was 84%.
In turn, GFCYNVCVYRNGVRRCYRRCN [SEQ ID NO: 207] registered a Protein binding (%) of 91%.
Regarding GFCFYVCVKRNGVRVCHRRCN [SEQ ID NO: 137], the Protein binding (%) stood at 86%.
GFCWYVCVYRNGVRHCYRRCN [SEQ ID NO: 39] displayed a Protein binding (%) of 98%.
As to GFCGRVCVRRNGVRVCYRRCN [SEQ ID NO: 172], the Protein binding (%) is 88%.
Molecule GFCARVCVYRNGVRSCYRRCN [SEQ ID NO: 122] displayed a Protein binding (%) of 81%.
GFCGHVCVYRNGVRVCYRRCS [SEQ ID NO: 144]: the Protein binding (%) is 68%.
Molecule GFCWRVCHYRNGVRVCYRRCN [SEQ ID NO: 74] had a Protein binding (%) of 99%.
Under KFCWNVCVYRNGVRVCHRRCN [SEQ ID NO: 100] stands 78%; under GFCWYVCVKRNGVRSCYRRCN [SEQ ID NO: 87], 93%.
Turning to GFCWYVCVYKNGVRVCHRRCN [SEQ ID NO: 89], the Protein binding (%) stood at 90%.
For the molecule GFCWYVCVYRNGVRVCYRRCT [SEQ ID NO: 54], the Protein binding (%) stood at 99%.
As for GFCSYVCVYRNGVRVCYRRCN [SEQ ID NO: 7], the figure is 68%; as for GFCWYVCVYRNGVRSCYRRCN [SEQ ID NO: 44], 85%; as for GFCTYVCVKRNGVRKCYRRCN [SEQ ID NO: 195], 95%.
In turn, GFCAKVCVYRNGVRSCYRRCN [SEQ ID NO: 120] came in with a Protein binding (%) of 69%.
Under GFCWYVCVYRNGVRVCNRRCN [SEQ ID NO: 48] stands 68%.

The record behind these values is patent US20150031601A1.
